Reference: patent US20110123525A1 (THROMBOGENICS N V, published 2011)

T1: recombinant human PlGF-2 (produced in Pichia) (human, UniProt P49763-3 19-170, limits assumed)
T1 construct: also called huPlGF-2; rhuPlGF-2
T1 sequence (looked up): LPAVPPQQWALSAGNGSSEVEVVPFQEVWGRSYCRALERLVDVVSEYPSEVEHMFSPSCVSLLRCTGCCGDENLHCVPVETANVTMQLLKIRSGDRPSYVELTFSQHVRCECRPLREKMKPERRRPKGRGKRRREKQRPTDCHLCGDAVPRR

T2: human PlGF-1 (human, UniProt P49763-2 19-149, limits assumed)
T2 construct: also called huPlGF-1; huPlGF
T2 sequence (looked up): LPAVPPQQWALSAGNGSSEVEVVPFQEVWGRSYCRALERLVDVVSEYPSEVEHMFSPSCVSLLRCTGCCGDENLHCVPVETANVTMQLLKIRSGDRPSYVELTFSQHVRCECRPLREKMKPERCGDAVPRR


What was measured:
[1] = molecular target: T1, recombinant human PlGF-2 (produced in …); test: Biacore, rhuPlGF-2 (Pichia) immobilized, antibody injected
human PlGF-1 [2] = molecular target: T2, human PlGF-1; test: ELISA, plate coated with huPlGF-1, detection with anti-huIgG-HRP (Fab specific), OPD
Protocol: ELISA plates were coated ON with […] huPlGF-1 in PBS, 100 μL/well, 4° C. After blocking with 1% BSA, 1 hr, RT, a dilution series of humanized Fab16D3 was added, 100 μL/well, the antibody fragment was allowed to bind for 1 hr, RT. Bound humanized Fab16D3 was detected with anti-huIgG-HRP(Fab specific) (100 μL/well, 1 hr RT). The assay was developed with OPD.

human PlGF-1 [3] = molecular target: T2, human PlGF-1; test: ELISA, plate coated with 1 µg/ml huPlGF-1, detection with murine anti-HA and goat anti-murine IgG-HRP, OPD
Protocol: ELISA plates were coated ON with 1 μg/ml huPlGF-1 in PBS, 200 μL/well, 4° C. After blocking with 1% BSA, 1 hr, RT, a dilution series of scFv16D3/humanized scFv16D3 was added, 200 μL/well, the antibody fragment was allowed to bind for 1 hr, RT. Bound scFv16D3 was detected with murine anti-HA (180 μL/well, 1 hr RT) followed by incubation with goat-anti-murine IgG-HRP (Sigma), 170 μL/well, 1 hr, RT. The assay was developed with OPD.

Kd [1] [nM] | EC50 (read off the curve) (human PlGF-1 [2]) [µg/mL] | EC50 (read off the curve) (human PlGF-1 [3]) [µg/mL] | Binder
0.29 |  |  | murine monoclonal anti-human PlGF antibody 16D3 (antibody, V domains shown, Whole mouse antibody from hybridoma LMBP 6399CB; also called anti-hPlGF; hp16D3mousecomplAB) VH: QIQLQQSGPELVKPGASVKISCKASGYTFTDYYINWVKLKPGQGLEWIGWIYPGSGNTKYNEKFKGKATLTIDTSSSTAYMQLSSLTSEDTAVYFCVRDSPFFDYWGQGTTLTVSS VL: DIVLSQSPSSLAVSAGEKVTMRCKSSQSLLNSGMRKSFLAWYQQKPGQSPKLLIYWASTRESGVPDRFTGSGSGTDFTLTISSVQAEDLAVYYCKQSYHLFTFGSGTKLEIK
0.131 | ~90 |  | humanized Fab 16D3 (Fab, V domains shown, also called hp16D3mutcomplFab; hp16D3mutcmplFab) VH: QVQLQQSGAELVKPGASVKISCKASGYTFTDYYINWVKLAPGQGLEWIGWIYPGSGNTKYNEKFKGKATLTIDTSSSTAYMQLSSLTSEDTAVYFCVRDSPFFDYWGQGTLLTVSS VL: DIVLTQSPDSLAVSLGERVTMNCKSSQSLLNSGMRKSFLAWYQQKPGQSPKLLIYWASTRESGVPDRFTGSGSGTDFTLTISSVQAEDVAVYYCKQSYHLFTFGSGTKLEIK
0.161 |  |  | humanized antibody 16D3 IgG4 kappa (antibody, V domains shown, Expressed transiently in HEK 293 cells; also called hu16D3; Hu16D3 IgG4κ) VH: QVQLQQSGAELVKPGASVKISCKASGYTFTDYYINWVKLAPGQGLEWIGWIYPGSGNTKYNEKFKGKATLTIDTSSSTAYMQLSSLTSEDTAVYFCVRDSPFFDYWGQGTLLTVSS VL: DIVLTQSPDSLAVSLGERVTMNCKSSQSLLNSGMRKSFLAWYQQKPGQSPKLLIYWASTRESGVPDRFTGSGSGTDFTLTISSVQAEDVAVYYCKQSYHLFTFGSGTKLEIK
0.195 |  | ~0.1 | humanized scFv of 16D3 (scFv, also called humanized scFv16D3; scFvhp16D3mut) scFv: QVQLQQSGAELVKPGASVKISCKASGYTFTDYYINWVKLAPGQGLEWIGWIYPGSGNTKYNEKFKGKATLTIDTSSSTAYMQLSSLTSEDTAVYFCVRDSPFFDYWGQGTLLTVSSGGGGSGGGGSGGGGSDIVLTQSPDSLAVSLGERVTMNCKSSQSLLNSGMRKSFLAWYQQKPGQSPKLLIYWASTRESGVPDRFTGSGSGTDFTLTISSVQAEDVAVYYCKQSYHLFTFGSGTKLEIKGSYPYDVPDYAGSHHHHHH
 |  | ~0.1 | scFv of murine antibody 16D3 (scFv, also called scFv16D3; scFv hp16D3) scFv: QIQLQQSGPELVKPGASVKISCKASGYTFTDYYINWVKLKPGQGLEWIGWIYPGSGNTKYNEKFKGKATLTIDTSSSTAYMQLSSLTSEDTAVYFCVRDSPFFDYWGQGTTLTVSSGGGGSGGGGSGGGGSDIVLSQSPSSLAVSAGEKVTMRCKSSQSLLNSGMRKSFLAWYQQKPGQSPKLLIYWASTRESGVPDRFTGSGSGTDFTLTISSVQAEDLAVYYCKQSYHLFTFGSGTKLEIKGSYPYDVPDYAGSHHHHHH
